Assay results: US20210063414A1, “METHODS FOR PREVENTING AND/OR TREATING BONE LOSS CONDITIONS BY MODULATING IRISIN” (Dana-Farber Cancer Institute, Inc., priority 2018, published 2021)

Assay: Half-life of recombinant his-tag irisin in vivo, plasma immunoblot against his-tag
Details: C57BL/6 mice, 1 mg/kg I.P.
Protocol: C57BL/6 mice were injected with irisin (1 mg/kg, I.P.) or sterilized PBS and blood was collected at indicated time point. Irisin in plasma was detected using immunoblot analysis against his-tag.

B1: irisin: secreted cleaved form of FNDC5; recombinant human/mouse irisin with C-terminal his tag produced in HEK293 cells (protein)
chain: DSPSAPVNVTVRHLKANSAVVSWDVLEDEVVIGFAISQQKKDVRMLRFIQEVNTTTRSCALWDLEEDTEYIVHVQAISIQGQSPASEPVLFKTPREAEKMASKNKDEVTMKE
modifications: left off: small tags and cut ends
notes: secreted cleaved form of FNDC5; recombinant human/mouse irisin with C-terminal his tag produced in HEK293 cells
half-life in vivo: less than an hour
